In data set [1] the target is Polγ holoenzyme, cryo-EM Complex ONE (Homo sapiens, UniProt P54098;Q9UHN1 26-1239;26-485). Kind of data set: cryo-EM; Complex ONE class 1; EMSA: 40 mM Tris-HCl pH 7.9, 60 mM NaCl, 10 mM MgCl2, 5% glycerol, 20 mM 2-mercaptoethanol, 0.1 mg/ml BSA, 150 nM Cy3 scaffold, 10 min room temperature; 0.5% agarose, 0.5X TBE, 4 °C. The conditions noted are these: protein: recombinant; tags: N-terminal His (both subunits); copies: 1;2; primer-template, 6 nt 5' template overhang, 3'-terminal A mismatched with G. (In EMSA bound probe runs differently from free probe, usually more slowly.)

Data set [2] deals with the molecule itself. Kind of data set: cryo-EM structure; Complex ONE: 2 μM WT Polγ holoenzyme with the DNA20*A/DNA20_TS scaffold (phosphorothioate mismatched primer), 10 mM Tris-HCl pH 7.9, 100 mM NaCl, 10 mM DTT, 2 mM MgCl2. Complex THREE: the same with the hydrolyzable DNA20A primer. Gives Structures I, II, VII, VIII, IX.

Polγ holoenzyme, cryo-EM Complex ONE, sequence (P54098 26-1239, one chain of several): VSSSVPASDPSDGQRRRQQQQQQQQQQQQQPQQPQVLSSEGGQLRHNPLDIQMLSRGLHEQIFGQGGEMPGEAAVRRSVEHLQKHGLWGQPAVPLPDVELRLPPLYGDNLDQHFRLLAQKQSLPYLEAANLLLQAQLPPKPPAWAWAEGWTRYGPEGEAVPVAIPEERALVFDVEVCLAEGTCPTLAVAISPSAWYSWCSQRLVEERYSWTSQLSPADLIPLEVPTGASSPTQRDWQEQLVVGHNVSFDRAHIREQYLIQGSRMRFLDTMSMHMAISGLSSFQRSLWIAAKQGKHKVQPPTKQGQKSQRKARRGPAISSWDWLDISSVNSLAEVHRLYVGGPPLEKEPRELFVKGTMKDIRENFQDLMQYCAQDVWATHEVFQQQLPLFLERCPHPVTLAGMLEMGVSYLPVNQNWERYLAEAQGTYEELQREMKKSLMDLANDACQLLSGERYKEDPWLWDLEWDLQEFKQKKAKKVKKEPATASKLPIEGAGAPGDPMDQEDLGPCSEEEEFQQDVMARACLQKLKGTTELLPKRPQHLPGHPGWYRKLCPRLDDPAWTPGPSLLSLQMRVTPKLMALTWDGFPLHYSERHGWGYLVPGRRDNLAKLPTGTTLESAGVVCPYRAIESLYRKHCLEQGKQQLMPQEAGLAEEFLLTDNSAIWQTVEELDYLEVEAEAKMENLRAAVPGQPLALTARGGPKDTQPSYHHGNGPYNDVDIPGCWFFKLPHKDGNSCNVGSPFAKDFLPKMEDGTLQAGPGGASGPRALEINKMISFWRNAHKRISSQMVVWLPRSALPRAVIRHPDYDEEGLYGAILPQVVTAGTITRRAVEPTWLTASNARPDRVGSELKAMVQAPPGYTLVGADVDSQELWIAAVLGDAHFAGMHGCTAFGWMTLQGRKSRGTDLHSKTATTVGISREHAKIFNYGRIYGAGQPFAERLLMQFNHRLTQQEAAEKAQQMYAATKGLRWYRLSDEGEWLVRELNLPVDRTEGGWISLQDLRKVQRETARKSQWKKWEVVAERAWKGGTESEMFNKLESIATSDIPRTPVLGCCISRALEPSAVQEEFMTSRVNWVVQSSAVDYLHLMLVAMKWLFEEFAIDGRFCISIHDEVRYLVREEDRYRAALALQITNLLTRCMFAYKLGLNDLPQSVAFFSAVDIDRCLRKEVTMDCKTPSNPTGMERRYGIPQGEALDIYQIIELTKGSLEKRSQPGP

B1: DNA20sA/DNA20TS (Complex ONE) (dsDNA)
DNA 1: GAAGACAGTCTGCGGCGCGA
DNA 2: ACACACGCGCGCCGCAGACTGTCTTC
modifications: phosphorothioate before the 3'-terminal A of the primer (racemic)
As to B1, in data set [1], the binding result is on record as “binds”.

B2: human mitochondrial DNA polymerase Gamma accessory subunit Polγ_B (residues 26–485) (natural protein, UniProt Q9UHN1 26-485, looked up)
chain: DAGQPELLTERSSPKGGHVKSHAELEGNGEHPEAPGSGEGSEALLEICQRRHFLSGSKQQLSRDSLLSGCHPGFGPLGVELRKNLAAEWWTSVVVFREQVFPVDALHHKPGPLLPGDSAFRLVSAETLREILQDKELSKEQLVAFLENVLKTSGKLRENLLHGALEHYVNCLDLVNKRLPYGLAQIGVCFHPVFDTKQIRNGVKSIGEKTEASLVWFTPPRTSNQWLDFWLRHRLQWWRKFAMSPSNFSSSDCQDEEGRKGNKLYYNFPWGKELIETLWNLGDHELLHMYPGNVSKLHGRDGRKNVVPCVLSVNGDLDRGMLAYLYDSFQLTENSFTRKKNLHRKVLKLHPCLAPIKVALDVGRGPTLELRQVCQGLFNELLENGISVWPGYLETMQSSLEQLYSKYDEMSILFTVLVTETTLENGLIHLRSRDTTMKEMMHISKLKDFLIKYISSAKNV
notes: human DNA polymerase gamma accessory subunit Polγ_B, residues 26-485; It is a homodimer in the holoenzyme, with a proximal copy Polγ_B1 and a distal copy Polγ_B2; also called Polγ_B homodimer; Polγ_B1; source: E. coli BL21-CodonPlus (DE3)-RIPL, purified (Ni-NTA, HiTrap heparin)
On to B2, for which, in data set [2], the binding result is listed as “binds”.
